Numbering of substitutions follows the chain as printed.
T1: huASIC1a (Homo sapiens, UniProt P78348)
T1 construct: host or cells: HEK293
T1 sequence (P78348 1-528): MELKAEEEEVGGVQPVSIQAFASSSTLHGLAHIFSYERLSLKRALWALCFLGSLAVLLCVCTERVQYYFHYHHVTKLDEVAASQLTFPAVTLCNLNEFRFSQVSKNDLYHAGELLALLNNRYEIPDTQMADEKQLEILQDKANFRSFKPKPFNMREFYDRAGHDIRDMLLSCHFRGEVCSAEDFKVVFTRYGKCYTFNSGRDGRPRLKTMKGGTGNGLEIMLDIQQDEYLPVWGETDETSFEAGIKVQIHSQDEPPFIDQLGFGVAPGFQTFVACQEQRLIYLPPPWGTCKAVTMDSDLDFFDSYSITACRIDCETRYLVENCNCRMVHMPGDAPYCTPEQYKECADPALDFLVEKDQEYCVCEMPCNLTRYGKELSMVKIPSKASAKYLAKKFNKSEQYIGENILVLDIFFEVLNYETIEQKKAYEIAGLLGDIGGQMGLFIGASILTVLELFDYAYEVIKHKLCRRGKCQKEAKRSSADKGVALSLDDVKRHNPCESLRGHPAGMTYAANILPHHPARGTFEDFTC

B1: KB_A07_ShK: ShK toxin in VL CDR2 of KB_A07, IgG1 (antibody, V domains shown)
VH: EVQLVESGGGLVRPGGSLRLSCAASGFTFSSYAMSWVRQAPGKGLEWVSAISGSGGSTYYADSVKGRFTISRDNTKNSLYLQMTSLRADDTAFYYCVKDFGPGYGTGWFDYWGPGTLVTVSS
VL: DIQMTQSPSSLSASVGDRVTITCRASQSISSYLNWYQQKPGKAPKLLIYAAGVRSCIDTIPKSRCTAFQCKHSMKYRLSFCRKTCGTCSRSGVPSRFSGSGSGTDFTLTISSLQPEDFATYYCQQGASPPYTFGQGTKVEIKR
B2: KB_A12_Mba-1: Mambalgin-1 in VL CDR2 of KB_A12 (antibody)
VH: B1 VH
VL: QSVLTQPPSVSEAPRQRVTITCSGSSSNIGNNAVNWYQQLPGKAPKLLIYAAGRLKCYQHGKVVTCHRDMKFCYHNTGMPFRNLKLILQGCSSSCSETENNKCCSTDRCNKANSGVSDRFSAAKSGTSASLAINGLRSEDEADYYCAAWDDSLNGYVFGTGTKLTVLGQP
B3: KB_A12_Mba-2: Mambalgin-2 in VL CDR2 of KB_A12 (antibody)
VH: B1 VH
VL: B2 VL with Y58F
B4: KB_A12_PcTx1: PcTx1 in VL CDR2 of KB_A12 (antibody)
VH: B1 VH
VL: QSVLTQPPSVSEAPRQRVTITCSGSSSNIGNNAVNWYQQLPGKAPKLLIYAAGREDCIPKWKGCVNRHGDCCEGLECWKRRRSFEVCVPKTPKTANSGVSDRFSAAKSGTSASLAINGLRSEDEADYYCAAWDDSLNGYVFGTGTKLTVLG
B5: KB_A07_PcTx1: PcTx1 in VL CDR2 of KB_A07 (antibody, V domains shown)
VH: B1 VH
VL: DIQMTQSPSSLSASVGDRVTITCRASQSISSYLNWYQQKPGKAPKLLIYAAGVEDCIPKWKGCVNRHGDCCEGLECWKRRRSFEVCVPKTPKTSRSGVPSRFSGSGSGTDFTLTISSLQPEDFATYYCQQGASPPYTFGQGTKVEIKR
B6: KB_A07_KTX: kaliotoxin in VL CDR2 of KB_A07, IgG1 (antibody, V domains shown)
VH: B1 VH
VL: DIQMTQSPSSLSASVGDRVTITCRASQSISSYLNWYQQKPGKAPKLLIYAAGVGVEINVKCSGSPQCLKPCKDAGMRFGKCMNRKCHCTPKSRSGVPSRFSGSGSGTDFTLTISSLQPEDFATYYCQQGASPPYTFGQGTKVEIKR

What was measured:
huKv1.3 = target: T2, huKv1.3 (Homo sapiens, UniProt P22001); assay: QPatch automated whole-cell patch-clamp, CHO cells stably expressing huKv1.3 (Example 8); type: cell-based
T2 construct: host or cells: CHO
T2 sequence (P22001 whole entry): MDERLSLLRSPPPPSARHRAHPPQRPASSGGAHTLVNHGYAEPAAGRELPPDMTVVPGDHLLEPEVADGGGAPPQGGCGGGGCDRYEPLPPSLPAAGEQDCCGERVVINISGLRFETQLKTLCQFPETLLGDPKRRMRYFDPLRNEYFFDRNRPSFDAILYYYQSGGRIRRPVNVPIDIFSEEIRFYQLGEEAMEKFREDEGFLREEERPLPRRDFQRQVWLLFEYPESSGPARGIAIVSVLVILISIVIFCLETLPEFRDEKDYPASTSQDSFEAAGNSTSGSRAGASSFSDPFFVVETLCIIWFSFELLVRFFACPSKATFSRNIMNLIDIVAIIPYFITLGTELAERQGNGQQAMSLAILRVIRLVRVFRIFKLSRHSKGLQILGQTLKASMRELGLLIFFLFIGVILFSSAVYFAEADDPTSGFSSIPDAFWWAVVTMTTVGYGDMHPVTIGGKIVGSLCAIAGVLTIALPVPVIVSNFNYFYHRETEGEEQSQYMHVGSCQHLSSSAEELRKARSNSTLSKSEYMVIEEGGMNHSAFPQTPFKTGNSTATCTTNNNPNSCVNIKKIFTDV
Procedure: (§1) Knottin Kv 1.3 and ASIC1a blockers expressed in the KnotBody format (see examples 6 and 7) were tested for their ability to inhibit the function of the ion channel targets. The effect of these KnotBodies on cells expressing the human Kv 1.3 (huKv1.3) or human ASIC1a channels was assessed using QPatch automated whole-cell patch-clamp electrophysiology (Sophion).
For the testing of Kv1.3, CHO cells stably expressing huKv1.3 (Charles River Lab) were analysed using the QPatch electrophysiology assay in the presence or absence of the KnotBody fusions or the antibody isotypes (negative) controls. Internal and external physiological solutions were freshly prepared prior to the assay. The extracellular solution contained 145 mM NaCl, 4 mM KCl, 2 mM CaCl2, 1 mM MgCl2, 10 mM HEPES and 10 mM glucose; the pH was adjusted to 7.4 with NaOH; the osmolarity was ~ 305 mOsm/L. The intracellular solution contained: KF (120 mM), KCl (20 mM), HEPES (10 mM) and EGTA (10 mM); the pH was adjusted to 7.2 with KOH; osmolarity was ~ 320 mOsm/L.
A series of depolarising voltage (channel activating) pulses were used to monitor the channel currents upon adding control (extracellular solution) to define a control baseline of current activity. To these measured control currents ascending concentrations of KnotBodies or parental antibody isotypes (control molecules) were applied to the external bathing solution (2.2 µM - 0.5 nM, diluted in the extracellular solution). KnotBodies KB_A12 and KB_A07 (EETI-II fusions) were used as isotype controls for the testing. From a holding voltage of -80 mV a depolarising, activating voltage pulses of +30 or +80 mV were applied for 300 ms, every 5 or 10 seconds. The elicited, maximum outward current values measured during the activating step for each solution exchange period were averaged (n = 3 - 8 for each concentration applied) and plotted as concentration-response curves. KB_A07_ShK, KB_A12_ShK and KB_A07_Kaliotoxin (KTX) fusion proteins all inhibited the huKv1.3 currents in a concentration dependent manner with IC50S of approximately 20 nM, 40 nM and 900 nM respectively.

huASIC1a = target: T1, huASIC1a; assay: QPatch electrophysiology, HEK293 cells stably expressing huASIC1a; type: cell-based; conditions: ASIC1a current at pH 6.0 after 15-20 minutes KnotBody pre-incubation, 2.3-6.6 µM
Procedure: as §1
To functionally assess the ASIC1a KnotBodies, HEK293 cells stably expressing huASIC1a (Sophion) were analysed using a QPatch electrophysiology assay in the presence or absence of the KnotBody fusions (using KB_A12 as a recipient and replacing the original EETI-II donor as shown in Table 8). The “parental” KB_A12 with the EETI-II donor was used as a negative control. Internal and external physiological solutions were freshly prepared prior to the assay. The extracellular solution contained 145 mM NaCl, 4 mM KCl, 2 mM CaCl2, 1 mM MgCl2, 10 mM HEPES and 10 mM glucose; the pH was adjusted to 7.4 with NaOH (for control, resting-state pH) or 6.0 with MES (for acidic, activating-state pH); the osmolarity was ~ 305 mOsm/L. The intracellular solution contained: CsF (140 mM), HEPES (10 mM), NaCl (10 mM) and EGTA/CsOH (1 mM/5 mM); the pH was adjusted to 7.3 with CsOH; osmolarity was ~ 320 mOsm/L.
Throughout ASIC 1a recordings the recording cell membrane voltage was clamped at -60 mV. ASIC1a baseline control currents were elicited by applying external solution at activating pH 6.0 for 3000 ms. This activating pH application was repeated three further times, giving four baseline control ASIC1a currents. The recording cells were then pre-incubated with KnotBody diluted in external solution at pH 7.4 for 15-20 minutes. Following this KnotBody pre-incubation the same concentration of KnotBody in external solution at activating pH 6.0 was applied to the cell recording.
At the end of each KnotBody incubation and subsequent ASIC1a current activation, a full blocking concentration (300 nM) of the ASIC1a knottin inhibitor PcTx1 (positive control) was perfused onto the cell recording and a final activating pH 6.0 external solution was applied. The percentage remaining signal between activating pH 6.0 baseline (i.e. pre-KnotBody) and post-KnotBody incubation was determined.

[1] = Kv1.3 channels, IgG KnotBody, Table 11A
[2] = huKv1.3 currents, text of Example 8, approximately

Row | Molecule | IC50 (huKv1.3; [1]) [nM] | IC50 (huKv1.3; [2]) [nM] | % current remaining (huASIC1a) | other results
1 | B1 | 40 | ~20 | – | –
2 | B2 | – | – | same level of current as the KB_A12 negative control | % current remaining (huASIC1a; listed as KB A12 Mba-1): 69.2%
3 | B3 | – | – | same level of current as the KB_A12 negative control | % current remaining (huASIC1a; listed as KB A12 Mba-2): 72.4%
4 | B4 | – | – | 4.8% | –
5 | B5 | – | – | 4.8% | % current remaining (huASIC1a; listed as KB A07 PcTx1): 6.2%
6 | B6 | 900 | ~900 | – | –
